Test results reported in paper PMC11189301, “Structure of the human outer kinetochore KMN network complex” (Nature Structural & Molecular Biology, 2024).

Molecular target: T1, NDC80 complex (Ndc80, Nuf2, Spc24, Spc25), full length, unmodified (Homo sapiens, UniProt O14777 1-642; Q9BZD4 1-464; Q8NBT2 1-197; Q9HBM1 1-224)
T1 construct: Ndc80, subunit of human NDC80C; Nuf2, subunit of human NDC80C; Spc24, subunit of human NDC80C; Spc25, subunit of human NDC80C; The DS tag on Nuf2 is TEV cleavable; a cleavage is not described; Ndc80 and Nuf2 were in the cryo-EM sample but not seen at high resolution; also called wild-type NDC80; source: High-5 insect cells (baculovirus), purified (Strep-Tactin, Resource Q, Superdex 200); copies: …
T1 sequence (O14777 whole entry, chain 1 of 4): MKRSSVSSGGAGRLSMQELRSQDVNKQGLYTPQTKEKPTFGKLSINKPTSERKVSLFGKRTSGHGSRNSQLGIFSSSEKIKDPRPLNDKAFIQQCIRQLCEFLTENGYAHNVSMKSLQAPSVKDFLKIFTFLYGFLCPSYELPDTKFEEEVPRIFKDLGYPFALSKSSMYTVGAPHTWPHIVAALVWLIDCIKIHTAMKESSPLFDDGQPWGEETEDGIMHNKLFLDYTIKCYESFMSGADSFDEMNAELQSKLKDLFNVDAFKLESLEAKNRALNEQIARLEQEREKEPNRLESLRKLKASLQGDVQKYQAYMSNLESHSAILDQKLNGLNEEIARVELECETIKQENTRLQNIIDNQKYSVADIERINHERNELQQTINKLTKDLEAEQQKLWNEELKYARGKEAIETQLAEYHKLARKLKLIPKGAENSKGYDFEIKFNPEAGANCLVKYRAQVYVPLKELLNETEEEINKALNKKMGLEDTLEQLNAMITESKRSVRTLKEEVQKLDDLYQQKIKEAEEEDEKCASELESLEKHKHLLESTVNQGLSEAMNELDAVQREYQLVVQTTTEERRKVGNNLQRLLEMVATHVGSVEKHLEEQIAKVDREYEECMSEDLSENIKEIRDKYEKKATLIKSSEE
T1 sequence (Q9BZD4 whole entry, chain 2 of 4): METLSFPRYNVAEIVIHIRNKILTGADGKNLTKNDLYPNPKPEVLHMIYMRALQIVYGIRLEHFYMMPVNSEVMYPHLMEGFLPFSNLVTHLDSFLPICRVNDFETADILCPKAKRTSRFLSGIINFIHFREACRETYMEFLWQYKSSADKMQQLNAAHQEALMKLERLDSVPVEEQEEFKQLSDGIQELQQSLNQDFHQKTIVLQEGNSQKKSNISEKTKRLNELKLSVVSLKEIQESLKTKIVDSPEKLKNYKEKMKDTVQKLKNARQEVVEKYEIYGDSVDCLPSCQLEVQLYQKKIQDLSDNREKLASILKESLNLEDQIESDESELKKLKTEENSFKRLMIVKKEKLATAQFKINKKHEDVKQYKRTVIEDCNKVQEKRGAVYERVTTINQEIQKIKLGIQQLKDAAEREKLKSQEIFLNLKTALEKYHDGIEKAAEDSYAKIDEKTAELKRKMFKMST
T1 sequence (Q8NBT2 whole entry, chain 3 of 4): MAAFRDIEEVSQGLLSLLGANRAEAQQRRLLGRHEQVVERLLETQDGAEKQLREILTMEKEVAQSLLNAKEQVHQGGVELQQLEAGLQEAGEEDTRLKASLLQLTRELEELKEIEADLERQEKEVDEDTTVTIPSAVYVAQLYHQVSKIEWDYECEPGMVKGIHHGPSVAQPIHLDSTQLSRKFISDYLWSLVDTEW
T1 sequence (Q9HBM1 whole entry, chain 4 of 4): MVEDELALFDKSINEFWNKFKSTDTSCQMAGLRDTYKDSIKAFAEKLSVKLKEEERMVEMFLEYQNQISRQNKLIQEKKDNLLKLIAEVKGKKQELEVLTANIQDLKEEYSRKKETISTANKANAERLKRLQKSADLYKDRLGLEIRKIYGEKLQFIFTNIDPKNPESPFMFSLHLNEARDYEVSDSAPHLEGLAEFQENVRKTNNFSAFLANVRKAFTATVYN
Experiment: SEC; MIS12C variant mixed with NDC80C at 4 µM each; 20 mM HEPES pH 7.8, 150 mM NaCl, 0.5 mM TCEP; Superose 6; fractions on SDS-PAGE
Conditions: both partners purified

Binder | binding result
MIS12 complex (Mis12, Pmf1, Dsn1, Nsl1), wild type, full length (complex, Homo sapiens, Mis12, subunit of human MIS12C; Pmf1, subunit of human MIS12C; Dsn1, subunit of human MIS12C; Nsl1, subunit of human MIS12C; The DS tag on Pmf1 is TEV cleavable; a cleavage is not described; also called MIS12C (WT); wild-type MIS12C; source: High-5 insect cells (baculovirus), purified (Strep-Tactin, Resource S, Superdex 200); copies: + + +) chain 1: MSVDPMTYEAQFFGFTPQTCMLRIYIAFQDYLFEVMQAVEQVILKKLDGIPDCDISPVQIRKCTEKFLCFMKGHFDNLFSKMEQLFLQLILRIPSNILLPEDKCKETPYSEEDFQHLQKEIEQLQEKYKTELCTKQALLAELEEQKIVQAKLKQTLTFFDELHNVGRDHGTSDFRESLVSLVQNSRKLQNIRDNVEKESKRLKIS chain 2: MAEASSANLGSGCEEKRHEGSSSESVPPGTTISRVKLLDTMVDTFLQKLVAAGSYQRFTDCYKCFYQLQPAMTQQIYDKFIAQLQTSIREEISDIKEEGNLEAVLNALDKIVEEGKVRKEPAWRPSGIPEKDLHSVMAPYFLQQRDTLRRHVQKQEAENQQLADAVLAGRRQVEELQLQVQAQQQAWQALHREQRELVAVLREPE chain 3: MTSVTRSEIIDEKGPVMSKTHDHQLESSLSPVEVFAKTSASLEMNQGVSEERIHLGSSPKKGGNCDLSHQERLQSKSLHLSPQEQSASYQDRRQSWRRASMKETNRRKSLHPIHQGITELSRSISVDLAESKRLGCLLLSSFQFSIQKLEPFLRDTKGFSLESFRAKASSLSEELKHFADGLETDGTLQKCFEDSNGKASDFSLEASVAEMKEYITKFSLERQTWDQLLLHYQQEAKEILSRGSTEAKITEVKVEPMTYLGSSQNEVLNTKPDYQKILQNQSKVFDCMELVMDELQGSVKQLQAFMDESTQCFQKVSVQLGKRSMQQLDPSPARKLLKLQLQNPPAIHGSGSGSCQ chain 4: MAGSPELVVLDPPWDKELAAGTESQALVSATPREDFRVRCTSKRAVTEMLQLCGRFVQKLGDALPEEIREPALRDAQWTFESAVQENISINGQAWQEASDNCFMDSDIKVLEDQFDEIIVDIATKRKQYPRKILECVIKTIKAKQEILKQYHPVVHPLDLKYDPDPAPHMENLKCRGETVAKEISEAMKSLPALIEQGEGFSQVLRMQPVIHLQRIHQEVFSSCHRKPDAKPENFITQIETTPTETASRKTSDMVLKRKQTKDCPQRKWYPLRPKKINLDT | binds
MIS12 complex with Dsn1 P332W R334A L336R (complex, Homo sapiens, Mis12, subunit of human MIS12C; Pmf1, subunit of human MIS12C; Dsn1, subunit of human MIS12C, P332W R334A L336R; Nsl1, subunit of human MIS12C; also called MIS12C^(Dsn1-P332W R334A L336R); MIS12C^(Dsn1 P332W/R334A/L336R); source: High-5 insect cells (baculovirus), purified (Strep-Tactin, Resource S, Superdex 200); copies: + + +) chain 1: MSVDPMTYEAQFFGFTPQTCMLRIYIAFQDYLFEVMQAVEQVILKKLDGIPDCDISPVQIRKCTEKFLCFMKGHFDNLFSKMEQLFLQLILRIPSNILLPEDKCKETPYSEEDFQHLQKEIEQLQEKYKTELCTKQALLAELEEQKIVQAKLKQTLTFFDELHNVGRDHGTSDFRESLVSLVQNSRKLQNIRDNVEKESKRLKIS chain 2: MAEASSANLGSGCEEKRHEGSSSESVPPGTTISRVKLLDTMVDTFLQKLVAAGSYQRFTDCYKCFYQLQPAMTQQIYDKFIAQLQTSIREEISDIKEEGNLEAVLNALDKIVEEGKVRKEPAWRPSGIPEKDLHSVMAPYFLQQRDTLRRHVQKQEAENQQLADAVLAGRRQVEELQLQVQAQQQAWQALHREQRELVAVLREPE chain 3: MTSVTRSEIIDEKGPVMSKTHDHQLESSLSPVEVFAKTSASLEMNQGVSEERIHLGSSPKKGGNCDLSHQERLQSKSLHLSPQEQSASYQDRRQSWRRASMKETNRRKSLHPIHQGITELSRSISVDLAESKRLGCLLLSSFQFSIQKLEPFLRDTKGFSLESFRAKASSLSEELKHFADGLETDGTLQKCFEDSNGKASDFSLEASVAEMKEYITKFSLERQTWDQLLLHYQQEAKEILSRGSTEAKITEVKVEPMTYLGSSQNEVLNTKPDYQKILQNQSKVFDCMELVMDELQGSVKQLQAFMDESTQCFQKVSVQLGKRSMQQLDPSWAAKRLKLQLQNPPAIHGSGSGSCQ chain 4: MAGSPELVVLDPPWDKELAAGTESQALVSATPREDFRVRCTSKRAVTEMLQLCGRFVQKLGDALPEEIREPALRDAQWTFESAVQENISINGQAWQEASDNCFMDSDIKVLEDQFDEIIVDIATKRKQYPRKILECVIKTIKAKQEILKQYHPVVHPLDLKYDPDPAPHMENLKCRGETVAKEISEAMKSLPALIEQGEGFSQVLRMQPVIHLQRIHQEVFSSCHRKPDAKPENFITQIETTPTETASRKTSDMVLKRKQTKDCPQRKWYPLRPKKINLDT | binds
